The values that follow are results of earlier work, collected in publication PMC8031367.

In this series the target is Cys403 (UniProt position 403, RPVIHCRAGVG). The experiment in a line: chemical modification.

As for “YopH (Yersinia protein tyrosine phosphatase) (Yersinia pestis (as stated for YopH in this article; the title of the cited source, ref 59, says only 'Yersinia'))”, the pKa (commonly the negative logarithm of the acid dissociation constant) is on record as 4.67.
